The stoichiometry N is a count of units in the complex or per binding partner.

Here are results for three proteins from paper doi:10.1101/691972, “Structure of D. melanogaster ARC1 reveals a repurposed molecule with characteristics of retroviral Gag” (bioRxiv, 2019).

Substitutions are numbered along the chain they refer to. Numbers in names are those of the source.

Series [1] concerns the molecule itself. As to the kind of experiment: crystal structure; Se-Met dARC1 CA; orthorhombic (P212121, 1.7 Å) and hexagonal (P6122, 2.3 Å) crystal forms, each with a dimer in the asymmetric unit; NaCl, HEPES pH 7.5 type conditions, 18 °C.
Series [2] deals with the molecule itself. As to the kind of experiment: SEC-MALS; SEC-MALLS; 25-400 µM loaded in 100 µL on Superdex INCREASE 200 10/300 GL; 20 mM Tris-HCl, 150 mM NaCl, 0.5 mM TCEP, 3 mM NaN3, pH 8.0.

B1: Se-Met substituted dARC1 CA (residues S39-N205) (domain or fragment, Drosophila melanogaster)
chain: SRGKGNFSACTHSFGGTRDHDVVEEFIGNIETYKDVEGISDENALKGISLLFYGMASTWWQGVRKEATTWKEAIALIREHFSPTKPAYQIYMEFFQNKQDDHDPIDTFVIQKRALLAQLPSGRHDEETELDLLFGLLNIKYRKHISRHSVHTFKDLLEQGRIIEHNNPLE
modifications: seleno-methionine substituted (incorporation confirmed by ESI-MS)
notes: dARC1, Drosophila melanogaster, Uniprot Q7K1U0, residues 39-205 (CA domain); the added N-terminal Met was processed; Protein of the two solved crystal forms (orthorhombic and hexagonal); also called SeMet dARC1 CA; seleno-methionine derivative protein; source: E. coli B834 (DE3) in seleno-methionine medium, purified by the identical procedure (Ni-NTA, carboxypeptidase A, SEC); not shown: His6, …
B1: the binding result in series [1] is recorded as “binds”.

B2: dARC1 CA (capsid domain region of D. melanogaster dARC1, residues S39-N205) (domain or fragment, Drosophila melanogaster)
chain: B1 chain
notes: dARC1, Drosophila melanogaster, Uniprot Q7K1U0, residues 39-205 (CA domain); the added N-terminal Met was processed (confirmed by ESI-MS); Native (non-SeMet) protein used for SEC-MALLS and AUC; also called dARC CA; dARC1 CA (S39-N205); source: E. coli BL21 (DE3), purified (Ni-NTA, carboxypeptidase A digestion of the His-tag, Superdex 75 SEC); not shown: His6, C-terminal, cleaved
Turning to B2, in series [2], the “stoichiometry N” value came out at 2.

B3: dARC1 CA (F133A) (domain or fragment, Drosophila melanogaster)
chain: B1 chain with F95A
notes: dARC1, Drosophila melanogaster, Uniprot Q7K1U0, residues 39-205 (CA domain) with F133A; also called F133A mutation; source: E. coli BL21 (DE3), purified
Regarding B3, the binding result in series [2] is listed as “binds”.
